According to patent US20230242651A1 (published 2023):
Residue numbers refer to the chain shown, from its start.

T1: human interleukin-23 receptor (IL23R) (human, UniProt Q5VWK5 24-355, limits assumed)
T1 construct: also called human IL23R
T1 sequence (looked up): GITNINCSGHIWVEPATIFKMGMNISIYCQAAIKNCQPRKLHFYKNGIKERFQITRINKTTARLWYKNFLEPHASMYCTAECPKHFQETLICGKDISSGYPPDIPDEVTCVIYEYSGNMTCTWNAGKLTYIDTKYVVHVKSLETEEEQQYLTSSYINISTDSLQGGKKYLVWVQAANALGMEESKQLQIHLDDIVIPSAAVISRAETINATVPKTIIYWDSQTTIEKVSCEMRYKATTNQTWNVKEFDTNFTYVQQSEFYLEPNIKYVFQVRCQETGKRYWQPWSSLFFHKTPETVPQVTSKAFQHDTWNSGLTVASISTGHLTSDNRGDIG

B1: Vκ2/VH6 consensus λ-capped, human IL23R specific scFv (scFv)
scFv: DIVMTQSPLSLPVTPGEPASISCQASENIYSFLAWYLQKPGQSPQLLIYSASKLAAGVPDRFSGSGSGTDFTLKISRVEAEDVGVYYCQQTNRYSNPDIYNVFGGGTKLTVLGGGGGSGGGGSGGGGSGGGGSQVQLQQSGPGLVKPSQTLSLTCAISGIDFNSNYYMCWIRQSPGRGLEWLGCIYVGSHVNTYYANWAKGRITINPDTSKNQFSLQLNSVTPEDTAVYYCATSGSSVLYFKFWGQGTLVTVSS
notes: scFv VL-linker-VH, made in E. coli; also called Vκ2VH6 capped
B2: Vκ3/VH2 consensus λ-capped, human IL23R specific scFv (scFv)
scFv: DIVLTQSPATLSLSPGERATLSCQASENIYSFLAWYQQKPGQAPRLLIYSASKLAAGVPARFSGSGSGTDFTLTISSLEPEDFAVYYCQQTNRYSNPDIYNVFGGGTKLTVLGGGGGSGGGGSGGGGSGGGGSQVQLKESGPALVKPTQTLTLTCTFSGIDFNSNYYMCWIRQPPGKALEWLACIYVGSHVNTYYANWAKGRLTISKDTSKNQVVLTMTNMDPVDTATYYCATSGSSVLYFKFWGQGTLVTVSS
notes: scFv VL-linker-VH, made in E. coli; also called Vκ3VH2 capped
B3: Vκ3/VH1A consensus λ-capped, human IL23R specific scFv (scFv)
scFv: DIVLTQSPATLSLSPGERATLSCQASENIYSFLAWYQQKPGQAPRLLIYSASKLAAGVPARFSGSGSGTDFTLTISSLEPEDFAVYYCQQTNRYSNPDIYNVFGGGTKLTVLGGGGGSGGGGSGGGGSGGGGSQVQLVQSGAEVKKPGSSVKVSCKASGIDFNSNYYMCWVRQAPGQGLEWMGCIYVGSHVNTYYANWAKGRVTITADESTSTAYMELSSLRSEDTAVYYCATSGSSVLYFKFWGQGTLVTVSS
notes: scFv VL-linker-VH, made in E. coli; also called Vκ3VH1A capped
B4: Vκ3/VH1B consensus λ-capped, human IL23R specific scFv (scFv)
scFv: B3 scFv with S149A, I205M, A207R, E209T, T211I
notes: scFv VL-linker-VH, made in E. coli; also called Vκ3VH1B capped
B5: Vκ2/VH5 consensus λ-capped, human IL23R specific scFv (scFv)
scFv: DIVMTQSPLSLPVTPGEPASISCQASENIYSFLAWYLQKPGQSPQLLIYSASKLAAGVPDRFSGSGSGTDFTLKISRVEAEDVGVYYCQQTNRYSNPDIYNVFGGGTKLTVLGGGGGSGGGGSGGGGSGGGGSEVQLVQSGAEVKKPGESLKISCKGSGIDFNSNYYMCWVRQMPGKGLEWMGCIYVGSHVNTYYANWAKGQVTISADKSISTAYLQWSSLKASDTAMYYCATSGSSVLYFKFWGQGTLVTVSS
notes: scFv VL-linker-VH, made in E. coli; also called Vκ2VH5 capped
B6: VK1/VH3 consensus λ-capped, TNF-specific scFv (scFv)
scFv: DIQMTQSPSSLSASVGDRVTITCQASQSISDWLAWYQQKPGKAPKLLIYGASRLASGVPSRFSGSGSGTDFTLTISSLQPEDFATYYCQQGWSDSYVDNLFGGGTKLTVLGGGGGSGGGGSGGGGSGGGGSEVQLVESGGGLVQPGGSLRLSCAASGFSLSSGAMSWVRQAPGKGLEWVSVIISSGATYYASWAKGRFTISRDNSKNTLYLQMNSLRAEDTAVYYCARGGPDDSNSMGTFDPWGQGTLVTVSS
notes: also called capped Vκ1/VH3 consensus molecule (TNF CDRs)
B7: VK1/VH3 consensus uncapped, TNF-specific scFv (scFv)
scFv: B6 scFv with G103Q, L107V, T108E, V109I, L110K, G111R
notes: also called control molecule (Vκ1/VH3 consensus)
B8: VK3/VH3 consensus λ-capped, TNF-specific scFv (scFv)
scFv: DIVLTQSPATLSLSPGERATLSCQASQSISDWLAWYQQKPGQAPRLLIYGASRLASGVPARFSGSGSGTDFTLTISSLEPEDFAVYYCQQGWSDSYVDNLFGGGTKLTVLGGGGGSGGGGSGGGGSGGGGSEVQLVESGGGLVQPGGSLRLSCAASGFSLSSGAMSWVRQAPGKGLEWVSVIISSGATYYASWAKGRFTISRDNSKNTLYLQMNSLRAEDTAVYYCARGGPDDSNSMGTFDPWGQGTLVTVSS

What follows are binders tested against T1, human interleukin-23 receptor (IL23R) (assay: SPR, scFv).
In short: (§1)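 Affinity values for human IL23R come from surface plasmon resonance, expressed as rate constants and dissociation constant or as the λ-capped to uncapped dissociation-constant ratio. The tested molecules were humanized rabbit scFv on consensus germline framework pairs, either uncapped or with Vκ framework IV replaced by a Vλ germline sequence (λ-cap), refolded from E. coli inclusion bodies.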

| Kd [nM] | koff [s⁻¹] | kon [M⁻¹ s⁻¹] | Binder |
| --- | --- | --- | --- |
| 0.887 | 0.000475 | 535000 | B1 |
| 0.0916 | 0.000152 | 1.66e+06 | B2 |
| 0.585 | 0.00117 | 2e+06 | B3 |
| 0.181 | 0.000506 | 2.8e+06 | B4 |
| 0.476 | 0.000715 | 1.5e+06 | B5 |

What follows are binders tested against T2, human TNF (human, UniProt P01375 77-233) (assay: SPR, scFv).
T2 sequence (P01375 77-233 limits assumed): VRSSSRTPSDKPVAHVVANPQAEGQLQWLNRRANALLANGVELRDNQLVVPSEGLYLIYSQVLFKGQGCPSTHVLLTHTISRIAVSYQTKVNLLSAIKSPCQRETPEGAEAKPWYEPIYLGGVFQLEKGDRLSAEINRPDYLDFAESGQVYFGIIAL

| Kd [nM] | koff [s⁻¹] | kon [M⁻¹ s⁻¹] | Binder |
| --- | --- | --- | --- |
| 0.225 | 9.41e-05 | 419000 | B6 |
| 0.265 | 0.000105 | 395000 | B7 |

These binders were tested against T1, human interleukin-23 receptor (IL23R) (assay: SPR, scFv (summary table)).
In short: as §1

| Kd [nM] | Binder |
| --- | --- |
| 0.887 | B1 |
| 0.0916 | B2 |
| 0.585 | B3 |
| 0.181 | B4 |
| 0.476 | B5 |

The binders below were run against T2, human TNF (assay: SPR, scFv; footnote: interference with SPR measurement).

| Kd [nM] | koff [s⁻¹] | kon [M⁻¹ s⁻¹] | Binder |
| --- | --- | --- | --- |
| 1.82 | 0.000529 | 290000 | B8 |

Each binder was assayed against T1, human interleukin-23 receptor (IL23R) (assay: SPR; KD of the capped scFv over KD of its uncapped counterpart).
In short: as §1

| Ratio (capped/uncapped) of KD | Binder |
| --- | --- |
| 0.3 | B1 |
| 0.2 | B2 |
| 2 | B3 |
| 0.4 | B4 |
| 1.6 | B5 |
